{
  "source": "paper PMC2134809",
  "about": "(The Journal of Cell Biology, 1997)",
  "molecular_target": "Rabbit skeletal muscle actin (rabbit, UniProt P68135 1-377)",
  "test": "co-sedimentation",
  "data": [
    {"binder": "Arp2/3 complex (complex) chain 1: not shown chain 2: not shown chain 3: MSANIENFKDSAKLTCITCHAFNRDRTLIAICPNNNEVHIYQKQGAEWVKNAVLVEHDQAVTGIDWGHKENRIVTCSQDRNAYVWSLGADGKWKPTLVLLRITRAATHVKWSPNEEKFAVATGAKCVSVCYFEEANDWWVSKHIKLHKSTVLNVAWHPNNIFLATAASDFKARIFSAFIKGVDKRPENTPFGDKLPFGEMLAEYSCGGWVHGVSWSPSGEWLSFVSHDSAISFVNISTGREAVPQRLSLSGLPYRVLAFLNPTDIIAAGYDCNPALFRLSGQTWAFVKNVDESSAAARAAPGAAQSAMNMWQKKADLGTTSNETQLETKHQNAISGLTALAPNQFSTTAVDGKLIIWTVRA chain 4: MILLETGSRILEEVIRQRVQSDKREAVDITLADFDGVQYHIATNATQRNLVTVSISWPCISQMKQFGTDAKVQSFYGPLVTSAETGYDYTLQFDLDNLADKDSLPGKIALFKRTVVAAPLEAVFDGKPGLPPVITINYRTNEAVYLKREGNNVAVIFSINFKDKDDIVIGKVFLQELEAARKTINNAPAVTFSQRERPLELKSVQNVYEGEDQGFVTFLLFGPHTHESRRGKTIDTIHLFRNYLHYHIKCSKAFLHTRMRLRVEELLQVLNRAKIKNANKEMKTMSGRTFKRA chain 5: MCGMGVLPIKTKYKGPAPRYTGPADQPDIIDEAISFFKANVLFRNYEVKGPADRVLIYLTLYISQAINQMVNQSKGGAQKNLFNLAIQNFAVPGDKNFALAGFVSNPANRAEADQIRQYLTQLRQETGDRLIEAVYAFGENEPSKWWMCFSKRKFLNKNL chain 6: METPEKPERSDAEFQQSLDARQREVNNALNTGNPGRALSAALQDPPLGCKNQQIRAVVNVLTSVKDADMQKNIDALSPTDLDTLMKYIYRGLEDGENSTSLLKWHEAVTKKGGLGCIVRALAERKAL", "values": [
      {"measurement": "Kd", "value": "2.3 ± 0.3", "unit": "µM"},
      {"measurement": "stoichiometry N", "value": "1 actin monomer per Arp2/3-binding site"}
    ]}
  ]
}
